In publication PMC11210195:
Values belong to the substance of their own block, whether it stands above or below them.

Key:
[1] = target: TRIM21 PRYSPRY domain (human) (UniProt P19474); test: SPR; Biacore T200, C1 chip, 25 °C, HBS-EP+; biotinylated PRYSPRY domain captured via monovalent streptavidin at low density (about 3 RU); (antibody) Fc constructs injected in five two-fold dilutions from 200 nM; global monophasic fit, affinity mode
mAb1 WT-AAA (human) = test: mass photometry; TRIM21-CC-PS incubated 10 min with antibody Fc variants at different molar ratios, low nM; PBS pH 7.4, room temperature
mAb1 HH (human) = test: SPR; antibody Fc variants captured via anti-human Fab-kappa ligand at low density (approx. 8-10 RU); TRIM21-CC-PS injected, two-fold series from 100 nM, 180 s association, 600 s dissociation; 25°C, HBS-EP+; 1:1 fit; apparent (avidity) constants
mAb1 YTE (human) = test: as above
[2] = target: anti-AAV2 capsid antibody A20 WT (human); test: SPR; A20 antibody variants and TRIM21-CC-PS; orientation not told in the text (Supplementary Figure S8); apparent (avidity) constant
[3] = target: mAb1 HH (human IgG1, T307H, N434H) (human); test: SPR; Biacore T200, C1 chip, 25 °C, HBS-EP+; (antibody) Fc variants captured at low density (about 8-10 RU) via anti-human Fab-kappa nanobody or anti-PGLALA F(ab')2; TRIM21-CC-PS injected 180 s in two-fold dilutions from 100, 400, 500 or 1000 nM; global 1:1 Langmuir fit; avidity (apparent) mode for symmetrical, affinity mode for asymmetrical Fc variants
[4] = target: mAb1 YTE (human IgG1, M252Y, S254T, T256E) (human); test: as above
[5] = target: anti-AAV2 capsid antibody A20 WT (bivalent, human IgG1 Fc WT) (human); test: as above
[6] = target: mAb1 WT-AAA (asymmetrical human IgG1, one Fc heavy chain H310A, H433A, Y436A) (human); test: as above
[7] = target: mAb1 HH-AAA (asymmetrical human IgG1, one Fc heavy chain HH, the other AAA) (human); test: as above
[8] = target: mAb1 YTE-AAA (asymmetrical human IgG1, one Fc heavy chain YTE, the other AAA) (human); test: as above

Chain of TRIM21-coiled-coil-PRYSPRY (TRIM21-CC-PS) (P19474 128-475): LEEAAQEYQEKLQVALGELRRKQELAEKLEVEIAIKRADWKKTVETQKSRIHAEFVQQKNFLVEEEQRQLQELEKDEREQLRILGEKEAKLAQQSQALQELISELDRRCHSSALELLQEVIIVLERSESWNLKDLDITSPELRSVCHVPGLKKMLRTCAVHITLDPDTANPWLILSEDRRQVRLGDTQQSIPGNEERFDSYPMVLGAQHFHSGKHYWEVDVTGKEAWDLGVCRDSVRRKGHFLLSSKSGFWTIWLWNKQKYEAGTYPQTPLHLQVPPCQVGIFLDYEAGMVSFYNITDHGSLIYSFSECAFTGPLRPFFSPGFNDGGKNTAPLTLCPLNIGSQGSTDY
Chain of TRIM21-coiled-coil-PRYSPRY (P19474 128-475): as above
Chain of TRIM21 PRYSPRY domain (human) (P19474 277-475): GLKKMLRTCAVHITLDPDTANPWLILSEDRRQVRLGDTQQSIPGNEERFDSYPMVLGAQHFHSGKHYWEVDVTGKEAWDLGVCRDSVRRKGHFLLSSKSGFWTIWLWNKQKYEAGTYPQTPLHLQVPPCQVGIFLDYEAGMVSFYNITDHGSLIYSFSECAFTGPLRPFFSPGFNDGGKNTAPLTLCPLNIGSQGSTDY
Chain of anti-AAV2 capsid antibody A20 WT (bivalent, human IgG1 Fc WT) (human) (heavy, as listed by the source, chain 1 of 2): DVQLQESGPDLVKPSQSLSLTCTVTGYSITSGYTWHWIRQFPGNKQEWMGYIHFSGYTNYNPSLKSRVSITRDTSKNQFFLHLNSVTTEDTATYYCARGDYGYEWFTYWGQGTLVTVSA
Chain of anti-AAV2 capsid antibody A20 WT (bivalent, human IgG1 Fc WT) (human) (light, as listed by the source, chain 2 of 2): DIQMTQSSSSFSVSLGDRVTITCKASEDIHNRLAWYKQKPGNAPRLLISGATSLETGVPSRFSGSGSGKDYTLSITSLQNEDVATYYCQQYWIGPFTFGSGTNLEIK
Chain of anti-AAV2 capsid antibody A20 WT (human) (heavy, as listed by the source, chain 1 of 2): as the sequence (heavy, as listed by the source, chain 1 of 2) above
Chain of anti-AAV2 capsid antibody A20 WT (human) (light, as listed by the source, chain 2 of 2): as the sequence (light, as listed by the source, chain 2 of 2) above

Kd [1]: 16.6 nM
koff [1]: 0.102 s⁻¹
kon [1]: 6.14e+06 M⁻¹ s⁻¹
Substance: Briakinumab (antibody)

Kd [1]: 25.9 nM
koff [1]: 0.132 s⁻¹
kon [1]: 5.09e+06 M⁻¹ s⁻¹
Substance: Fc WT (Fc-only variant, human IgG1 core hinge-CH2-CH3, wild type) (domain or fragment)

Continued, substance first:

Substance: TRIM21-coiled-coil-PRYSPRY (TRIM21-CC-PS) (from UniProt P19474-1 128-475) (domain or fragment)
percent complexed (mAb1 WT-AAA (human)): 2%
avidity enhancement (K (D,AFFINITY)/K (D,AVIDITY)) (mAb1 HH (human)): 72 fold
fold faster kinetic rates against YTE (mAb1 HH (human)): 5 fold
fold weaker against the WT avidity (mAb1 HH (human)): 2 fold
avidity enhancement (K (D,AFFINITY)/K (D,AVIDITY)) (mAb1 YTE (human)): 50 fold
fold weaker against the WT avidity (mAb1 YTE (human)): 2 fold
Kd [2]: 0.7 nM

Substance: TRIM21-coiled-coil-PRYSPRY (from UniProt P19474-1 128-475) (domain or fragment)
Kd [3]: 1.37 nM
koff [3]: 0.00651 s⁻¹
kon [3]: 4.74e+06 M⁻¹ s⁻¹
Kd [4]: 1.47 nM
koff [4]: 0.00127 s⁻¹
kon [4]: 865000 M⁻¹ s⁻¹
koff [5]: 0.000983 s⁻¹
kon [5]: 1.44e+06 M⁻¹ s⁻¹
Kd [6]: 116 nM
koff [6]: 0.129 s⁻¹
kon [6]: 1.1e+06 M⁻¹ s⁻¹
Kd [7]: 474 nM
koff [7]: 0.437 s⁻¹
kon [7]: 921000 M⁻¹ s⁻¹
Kd [8]: 220 nM
koff [8]: 0.167 s⁻¹
kon [8]: 758000 M⁻¹ s⁻¹

Substance: Ustekinumab (antibody)
Kd [1]: 22.7 nM
koff [1]: 0.0884 s⁻¹
kon [1]: 3.89e+06 M⁻¹ s⁻¹
